The values below come from paper doi:10.1101/2024.09.30.615892.

For orientation: Kd means the equilibrium constant for the complex coming apart. A low value points to higher affinity.

Data set [1] relates to T1, EppR-His6 (Acinetobacter baumannii ATCC17978), ORF:cce4f89b.
T1 sequence: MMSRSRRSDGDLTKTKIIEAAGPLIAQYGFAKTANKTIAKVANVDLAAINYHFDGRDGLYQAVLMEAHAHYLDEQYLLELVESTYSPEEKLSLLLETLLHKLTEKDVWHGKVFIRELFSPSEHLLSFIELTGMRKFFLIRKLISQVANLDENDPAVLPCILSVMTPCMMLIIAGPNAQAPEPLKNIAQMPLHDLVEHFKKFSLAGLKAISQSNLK
The data set can be described thus: EMSA.

In data set [2] the test system is EppR-His6 (Acinetobacter baumannii ATCC17978). In words: EMSA.

With “AATAAAGTAGAGCACAGCTTAATTTCAAATTTAAAAGTTGTGGATAAACAAATTGATCTAGAAAAAATGATCAACGGATAAAGGAATATTTAATTTTTTTATGCGGGCCTCTACCGCTTATAGAACAGTTTTTAAACAATTTTACTTATAGCTTCATTCA (double strand) [umuDC0636-0637 promoter]”, the binding result in data set [1] is reported as “binds”.

On to “ACCATTTTGAAATCGTAACAAATTCAAGATAAATGGTAGAGTTGAGTAAAGAGAAATTCAAATTTAAAAAATTGTGGATAAACAAGTAAAAGTCAAAAATTGTCGCAGTATCTGGCGCATTTGGTCGGAAATTCTTCAGTTCTGATCTAG (double strand) [umuC2015 promoter]”, for which, in data set [1], the binding result is recorded as “binds”.

Consider “ACTCATATTTAAGTGTTCAGAATTTCATTGATAAAAATCAAAACAGTCAGTAATAAGAACTATTTCACAATAGGTTTTGATTCTCTTCAAATTACCATTTCCGTTTTAACATCCCTGTTAAAAGCAAAATGGATTAAAATCTGATCATGAAATTTATTGTTATGCAAAAAAAATATTTCGTCAACTTGAAAATGTAACTTTTTCAAGTTACATTGTTTGTGTAGGATTTGAACGGTGAAATGGAGGCGAT (double strand) [umuDAb (1389) promoter]”, for which the binding result in data set [1] is “binds”.

On to “ATGTTTCCCCTAGCTTGATTTTGTAACATATTCAAGATGATATTCTAGAGATGAGCATAAATTCAAATTTAAAAAGTTGTGGATAAACAAGGGGAAGTCAAAAACTGACGTAGCCAAAAGTGCATTTGGTCGGAATTTATGCATTGCTGTACAGTGAGGCAACCATAGCATGGGAATCAAAATATTAGCTTTGAGATTGTAAATCTTTGTGGAACTTAATGTTCCACACTATTGCTTATTTATAGCAAAT (double strand) [umuDC1174-1173 promoter]”, for which the binding entry in data set [1] is “binds”.

Regarding “CTTTTTTATTCATCTTTTTGGCCTTCTTATTAAATTCAAATTTACATAGTTTAAATTCAATTTAAATTTAAATTACCTTAATCTTTGAATAAAAGATATACTTTTATGATGAAATAAAATTAGGTTTAAACATGTCC (double strand) [eppR promoter]”, the Kd in data set [1] turned out to be 123 nM. This lies in the sub-micromolar range.

Take “TATTTCATCCCCTTACTCATTAACTGAAATCTGCATTTTGAATTTGTAACATAATCAAGTTAACAAAATTACGGGCTGATATCTAGGGGAGTTTCAGTTGTTCGTCGAAATTATAGGTAGGAGATAAAATCTATGAAATGTCAGTTATTGATATGGAAATGTCTGAAAATGATAAGTTTTAATTGGTTATGATCGGAAATATAAGAGCTATATTTAATGGATGAGTTGAGTCTTTTAAATGTAGTAATGC (double strand) [umuC2008 promoter]”: the binding result in data set [1] is listed as “binds”.

In turn, eppR promoter yielded a Kd in data set [2] of 123 nM. This counts as sub-micromolar.
